Assay results taken from the DeepSol protein solubility set.

Assay: soluble on expression in E. coli; label from the status in PepcDB or PDB records

Sequence	soluble on expression in E. coli
MAHHHHHHMGTLEAQTQGPGSMKLAINGFGRIGRNVFKIAFERGIDIVAINDLTDPKTLAHLLKYDSTFGVYNKKVESRDGAIVVDGREIKIIAERDPKNLPWAKLGIDVVIESTGVFSSATSDKGGYLDHVNHAGAKKVILTVPAKDEIKTIVLGVNDHDINSDLKAVSNASCTTNCLAPLAKVLHESFGIEQGLMTTVHAYTNDQRILDLPHSDLRRARAAALSIIPTSTGAAKAVGLVLPELKGKLNGTSMRVPVPTGSIVDLTVQLKKKDVTKEEINSVLRKASETPELKGILGYTEDPIVSSDIKGNSHSSIVDGLETMVLENGFAKILSWYDNEFGYSTRVVDLAQKLVK	soluble
MAHHHHHHMGTYFSKDLQECLREEKRNLNRSIRELEREIFKMENEKKQIEKNIRIHAKKNDITLVRTLAKDLVKIKQNVIKYNKIKSHLLSMKIKLQSVKSSEQLNKSLCDINNIIKRVNKYIQVKNINNSIYEFQKQNNEVSIKEDMIDDLFDTLNYDIDMIQEEDEIVSKVLDELGIQLNSKLEQIPTIKQTENEQLDNVNISKIEDRINNLKKM	soluble
MAHHHHHHMHADGMHTEQDEFTLSQYVQRTPLARPLGLKIGARVMLRTNLAPGLVNGSLGTVVAFRKLEMDQLPRYIVGNAQREESILQYADYLKYEQGFEVPLVPVLDFNGRQEVIPPVTHFVGGLPNTHFYSMGIIALPLSLAYAFTVHKVQGLTLVGRVHLELSRMWPCEHLLYVAMSRVRNPEQLSVSSFHPSLVRAAADCLLFDDSLPPVTQVRIAPYMVAATWRRSSERRKKTVLRKRLEAYVKRRQQRLQSEASKGDIRAEIRLLEEKMLKQRVRASAAHRKRRSTPGKLGAVAGSPMV	not soluble
MAHHHHHHMHAYSGRMEHRKMVEVKDVPQNMYTYGKEGMSIPISIFKDQADPVIGPEWTYPGIFENKIVAQHWYMEELFDREKSNTFESPWQRQVLDNQVKRRLGKVAWRMSMLNIKTIDIFHKERGASKRPGAGDTKAPATPAGKK	not soluble
MAHHHHHHMISYSGVLYTSDLMAQLMEMVKYSTHASSRDSDAQRLLRYAVRGSSAAQDDLYRSLWLKVEMVADSRVLGRYIGAREPWSPIRVCFDERGLFKSYPPLVHASAKKTSAIEADATSGSGSTTMEEEQRQQSERQGMSTEITSHTSEGGEEMVEGVRGAVVAEASEASGVKDVALQEASHGEQRTVEALDLRWDDIHRLIERTRALTSPPTERHPQQEKMEIFTGIAVYLRTIATGRRYCSGEEEAGGEYPAESRERALFAVGYELDVWARLFELVQEVRHDMEKFITDNAAHHVEPEFECWEALLITLRCILDFCVVRTQEKGKEERAAVEELFEKTMKLRNELVEESRTRFGGRMRILWLQEA	not soluble
MAHHHHHHMKAFFIGKREYRRVLSLQETIFNAKIARQVSVRRGASKLPLLPDVVILVEHSTPVYTIGRRDTTHGLPPHCSIDVVKTRRGGGITYHGPGQLTMYPIANIQLLWKDCTAEKPRSPIEWFSWALEEAMIQTAAMYHIPTHRFKTGVWADQYKDIPAQKLGAVGLQLGSWVSMHGAGLNVASDLHFFDDIIMCELPDRRATSLSNEMQHRGVAESPPLVQATAPVLLQKFIESLHQQPSCAAPQLVDLSADADWHERVIDTAGISTP	not soluble
MAHHHHHHMKKSINILVCNNYLIHDFLSFFKNSDIDVGTKMDFIQKKASQVRIILLNGNEIMPGINVNYLEQIKEVFINAKIYVRYVVQEVGTVSIMELGQLEQDNIPYERKLAGYVLPNVHVKIDSKTNVMKIKSDNVFSQYYNNGKLTSQAFDQGGFFKTKYVASLAENALLKIEGIHNDMENIPDEYYLYFKQRRDKMEKHPPGYLKRVPLQGQIWGNFHANRRNWKRKF	not soluble
MAHHHHHHMKLEFAHEAIVSRRRLSKFGYSLQTEKWTLHVNKKKRERKRKDSKKREEGEVIITKNANEREIKTVEESKHHTTCRLWFANVAACMYFLALATEELNTILQTEVFSKQRLIYWQMYHMPCSHISCMSARIPPLPPFRLYVTLKPKMRGSIFANISVGRMVGYEAAWSSTYSKRKR	not soluble
MAHHHHHHMKRRCDLLEVHSVAARPHKRGGTETTREHHFPLYSHPMFRAARHNANAVQDAVAEQSDRVDPGALDAALENMVTQLVEQRLSRHEAEGDTSPTLAKKNFIVTESELLALLAEATHATPLSPRPQQPPSAFPPSRPEAIAALAAAAAASSPPPQQGPFIPNQGYHTTHPPLQSNGDAERRAGPPPRTQASLFSGAASALGGDEPDELNVVSVGALQQAALRSLGHMDEQAAPRLPPLSESVASTTSGPTTKQRHPPTMPLYSLLPCLVASPGLTAASVLPAIVSSSLNPSPSSVTFREMDRCPGTGTGLVAQQSVDAQQLHQVPDAVFAAMDVLMDGNNCCMRRRKRLVATNGNKAESLSLNPRCLPGSGGGASGGSCFAFGCGSKGASLNRMYVPVAQNTLPAPPPPRTASEAKARRILEGQRRKQRLHDQQQHLVSNSFSLAGGGNTAPLSSSLVEFRSDTTSLPTEPFRWRHIDRSGSRTHSSAHPAPLPAASSVSRSAAVVVGTASTLPLTQEASLTFTLRDIAGEPVYMQAISAANRCWPASLI	not soluble
MAHHHHHHMKYGQVVVGPAGSGKTNYCKLMKEFMKIKKRNCYVVNLDSASEEYYYERKKKAINTTSNIEKELKQYYDTIYDIDIRNYVDVNSLMEDQMLGPNCALLRSVELLYENSYLLEDELNNYDDDENYFIIDTPGQIELYTHTDYFKKILSIFTDQNIRLIVVFLVDISFISSNTKLLSAYLTSLSTMINFELPHINILTKCDLLASKNYYQELRKFKHNNNFFFQRKLYKKINKKIKGGRGSRFFLNDKAEQSDGEGKRPSDDLGDTFLKEMECINGDKSFKDEYILCSDYDKRSVSSFSSASMSEGRSEKFGKNSSDEHSSSSVRSEEIEEKIYQKNYEKLNDILSLDPHDIVMTANKCMSRKYYKLNNAFAHIIEDFNLVSFIPLNIYDDDNVDFIINSIDMIIQYGEDKDVNDNYDM	not soluble
MAHHHHHHMLANYDYESDLRGRTDELGRAQHVDAYDKHPTFLESPYAGQEDLLRDAPQSYMDGPPPGYGGHDAYEHVDMNGGGYDLPLQPQAQTQAVDTRRLSKDRLARGGLNIFSWSTDAPTLNHPREVRERDCAELQRLRPVDSAAQRDKEVREKFEGNTQSRFLCFSESDSPGKRRGVRVFNPNNKNGNLNSGTGHENPIQNRFNEEPQPFKIRQQQPRPLPQQNLPPAGRATHSNRQESGGIPGFAGMGEGRQHNARRGRGSYRG	soluble
MAHHHHHHMLECNTNSALMEAHFGVVHADQLVPRALSSHAAAAQLSGASKPDKTPTPSLPPGPFIVMGLYGRNVLVLIADGEGQTAVQIHVTRGVAEVAETFRKVAGTPLPPPALPLEPLSVPASPPESTMVAEAAAASRLVANDEVSQERPQAPETERREDQAGPVPATVTCIVAEETDAFMAPAADIAAAAAAEAQLCKDKAAGMRGVEGVCKEVGTATPVADEERHGGPPPTKEVILTDLHKAGETAAHACSSVVVEISQGVSISAASAPRTWRWSSTTSSSASSSSFDSHASQRLRQQQQQSRLEQIGEEQAHRSGPSTGRASAPSTPTDKVVEEVAEAWPTYGAQLLESAEEVTVVPAVTPATDDAPPLMTLPAAEHAMTSQNGEGVFQAEAAIGVVEAANTKTPGEKDVHYHDDGVVSADASLHGQSLLQLPEKDLSAPEGESEKHLQLGSSLAVQFFADHTPSLLPASSSMPRPSQQQHTGDAQEASLGTEVSFDEDGVDAHRLPATLESDCEERVQHVSGADADDVAGPVIAFQASSLLASVEQRGWANQAPPVRHVAIPAGEEVAVTTAMARSATAFTPSYSPPPASPADLRAAPRVWGAQGTSYPTSGPSPCAAAVGLQHHSAATPFTNFLKAYAVYVLGTHGAASGGESKQLRNGTAPHMNECAAGAGEASRGVAELASILDFYREQPLARIMEATAIQRRCRAAWNEVIASTPASAAAQVGSDVEVCKLKASASTTVFTELCVDELVSLLAIVHYPSPRQDG	not soluble
MAHHHHHHMLKRSGTICSLQSVVRGAAKIAAAIVDASVGNVNVVDNSHNGEGGTPARAAGRSHTSSPPEVLPRSVVTQLHESKDDLRKNAVYMSVPSTRITRAAGFASLFVQLGWDHLVDRNGEGILSSQSHKRVVNTLRRMRGVVLKLGQMLSIQDPATVPQYVLQLFEQVRDSAYAMSREQLDQTLAKEYENINWRKDFFLEFDDEPIGAASIGQVHRATIKGEGDTQIEHVAVKVQYPGVATSIDSDIANLKMLISLHLLPPGMFVDRILQDLRQEFLLECRYKIEAAKQVRYAALIKQEPELQEVFVVPKVYESLSTENVLVTQFVTGIPVDRLANISGVQDLKNYVAERMLLLTLTELFRWRFMQTDPNYANFLFDAEKNKISLIDFGAAREYSKEFVKDYMDVVAAAARQDRDRIIEKSIKLGFLTGNEMKPMLDAHAASVELLGRPFRHHDKPFDFSAENLPSKIQEHVPTIIKLRLRPPPTPVYSLHRRISGIILLATKLKATVNSGEMFWNIYNSCRTNYE	not soluble
MAHHHHHHMLQPFQLLQSLVSPIVGVSAKVTVGNQAKDDFLLKTLAIDKKKLDPSYFEKYDNLKWEGKIIAIGDIHGDMESLKLILRHANLINENDEWIAENVLLVQVGDVLDRGIYGPLIYNYLFKLQKEAPLKKSKVLLIMGNHEQLNMCGYFNYVNQKEVEIFFKNNFNYRLFHFVSTAGEYFKKLIRLPVIAKVNDILFVHAGISKQISSLSLQTIRLKTRLQIENMCKILSYDKSRDYVNREGVLWYDHVSRTAPYDEKQACAILSHVFNKYGAKHLVVGHTKQMTHEISTYCNGGLFLIDTGMSLFMNNGQPYPNYLVAENGIFKSVHLNVEVNKKSKYCDSLEIELRSPNKQSFCIHAKETLLSPPNGG	not soluble
MAHHHHHHMLRGTPVRRASLRYRRPYWMMFLKGVDNWKIYTVIQQPDHQRTEMLYQAWLGGLDRPYTRPKCMANQPLWLSKKRHMLRKERLDGPETPLEKYVLEWHKKFHSFQGTERPTPDDLHTALDLVERPLDLSYALQLLGQCRNLNNIRFAKETFLVFLEACLRVGRRDCAEYALEHAEPLGFWFIDEDHRRYLQGEQTWYKLSPLDNLYYPVEENAKLNEGRKPITRLSPATESPGSGTAISDGEPSTDVEGETTVDDEIAQLEAELAALEREGGGK	not soluble
MAHHHHHHMLRVSCRFFGALQEIFSRGQGVWNLDFGNSPTTEDLIFNSAPKTSTPPFHVLDLEGNIVNKINEPVVPKETLVKIMETMIRSNTIDNILLEAQRQGRISFYLTALGEEATVVGTAAGLEIRDEAFLQYREAGFLLYRGYNIPQLVAQCMGNVEDVLKGRQMPIHYGSRELNVHMVSSPLATQIPHAAGAGYAFRLENEELSDESKSRVAVVIFGEGAASEGDFHGGVNFAAATGSNTLFVVRNNGYAISTPARVQYKGDGVLARGIGYGIPSARVDGQDVLAILQAVQQARQIIRTTNQPVLIEALCYRLQHHSSSDDSGMYRSSDEIENFLALSPLDRFEKFLVKRDLWTAEHTGALAKQVREELLQELRRQELLPHWPADVMHDDVYKVKTPDLVKAQKELQAHYERNRGFYGK	not soluble
MAHHHHHHMLSLPRDHHYHAHHSGTEFVPFDQVIGITPDGVPVISNGNEFHFSNLESVTPSYQALCSSVRKAPVIVPCTKLGAKWQCVEFARRYLASRKAVWTASMPIAADMLRAEPPFVHVQDSTPVEFTRTPNRSHGPAPAMSDIIVWDQSEETPLGHVAVVTEVLPEAVRVAEQNQGFERWPQGMLYSREISMQRSSAGTVELVDEDSVLGWVTLQCPYYDFRDGDLADKFRIATGPGCIVRQPFPKHVELPWVQPEERCDFYLKRSLAIGGNVGDDARAEECDVPSAFFFYFLDY	not soluble
